Molecular target: RNA polymerase (RNAP), core enzyme without sigma factor (E. coli (endogenous in the cell-free extract))

| Substance | Kσ28: dissociation constant obtained by fitting a nonlinear ODE model to GFP/mRNA time-series responses of the pTar-tetO combinatorial promoter in E. coli TX-TL cell-free extract (29°C) [pM] | Kσ70: dissociation constant obtained by fitting a nonlinear ODE model to GFP/mRNA time-series responses of the pTar-tetO combinatorial promoter in E. coli TX-TL cell-free extract (29°C) [pM] |
| --- | --- | --- |
| sigma factor 28 (from UniProt P0AEM6 1-239) (natural protein) | 5.3 |  |
| sigma factor 70 (from UniProt P00579 1-613) (natural protein) |  | 0.0018 |

— article PMC7445770
